In article PMC7324553, “Activity-Based Protein Profiling Reveals That Cephalosporins Selectively Active on Non-replicating Mycobacterium tuberculosis Bind Multiple Protein Families and Spare Peptidoglycan Transpeptidases” (Frontiers in Microbiology, 2020):

Target: the molecule itself
Experiment: SEC; Superdex 75 column, 20 mM Tris-Cl (pH 7.5), 150 mM NaCl; profile compared with protein size standards (44 and 17 kDa)

B1: Rv1738 (uncharacterized protein Rv1738; potential hibernation factor) (natural protein)
chain: MCGDQSDHVLQHWTVDISIDEHEGLTRAKARLRWREKELVGVGLARLNPADRNVPEIGDELSVARALSDLGKRMLKVSTHDIEAVTHQPARLLY
stoichiometry N: 2
